Assay results from patent US5700659.
Blank lines part the entries; values can stand above or below the binder they belong to.

Experiments:
[1] = target: scrambled egg lysozyme (Gallus gallus (Chicken)) (UniProt P00698)
[2] = target: scrambled ribonuclease A from bovine pancreas (bovine) (UniProt P61823)
Sequence of UniProt P61823 (P61823 27-150 limits assumed): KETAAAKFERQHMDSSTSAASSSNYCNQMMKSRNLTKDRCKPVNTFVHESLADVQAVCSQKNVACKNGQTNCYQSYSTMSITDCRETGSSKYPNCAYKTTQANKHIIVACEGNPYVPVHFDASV

reactivation of Sc-lysozyme (lysozyme activity on ethylene glycol chitin, absorbance at 420 nm) [1]: 12%
Refolding Ratio of Sc-RNase (%) [2]: 80%
B1: polypeptide possessing protein disulfide isomerase (PDI) activity from Humicola insolens KASI (FERM BP-4239), purified from fungal cells (Example 2) (enzyme)
chain: SDVVQLKKDTFDDFIKTNDLVLAEFFAPWCGHCKALAPEYEEAATTLKEKNIKLAKVDCTEETDLCQQHGVEGYPTLKVFRGLDNVSPYKGQRKAAAITSYMIKQSLPAVSEVTKDNLEEFKKADKAVLVAYVDASDKASSEVFTQVAEKLRDNYPFGSSSDAALAEAEGVKAPAIVLYKDFDEGKAVFSEKFEVEAIEKFAKTGATPLIGEIGPETYSDYMSAGIPLAYIFAETAEERKELSDKLKPIAEAQRGVINFGTIDAKAFGAHAGNLNLKTDKFPAFAIQEVAKNQKFPFDQEKEITFEAIKAFVDDFVAGKIEPSIKSEPIPEKQEGPVTVVVAKNYNEIVLDDTKDVLIEFYAPWCGHCKALAPKYEELGALYAKSEFKDRVVIAKVDATANDVPDEIQGFPTIKLYPAGAKGQPVTYSGSRTVEDLIKFIAENGKYKAAISEDAEETSSATETTTETATKSEEAAKETATEHDEL

Refolding Ratio of Sc-RNase (%) [2]: 82%
B2: recombinant polypeptide possessing PDI activity from E. coli JM105/pTrc99APDI (Example 8) (enzyme)
chain: B1 chain
